Assays:
Assay in all cases: cell-based or functional assay
[1] = biological target: HIV-1 Env of isolate MGRM-AE-002 (subtype AE) (HIV-1)
[2] = biological target: HIV-1 Env of isolate 92WR026 (subtype A) (HIV-1)
[3] = biological target: HIV-1 Env of isolate MGRM-AE-005 (subtype AE) (HIV-1)
[4] = biological target: HIV-1 Env of isolate 92UG031 (subtype A) (HIV-1)
[5] = biological target: HIV-1 Env of isolate 92WR021 (subtype A) (HIV-1)
[6] = biological target: HIV-1 Env of isolate 92UG037 (subtype A) (HIV-1)
[7] = biological target: HIV-1 Env of isolate 94UG103 (subtype A) (HIV-1)
[8] = biological target: HIV-1 Env of isolate MGRM-AE-004 (subtype AE) (HIV-1)
[9] = biological target: HIV-1 envelope glycoprotein (Env) of isolate APV_13 (HIV-1)
[10] = biological target: HIV-1 Env of isolate 94 KE 105 (subtype AC) (HIV-1)
[11] = biological target: HIV-1 Env of isolate MGRM-G-001 (HIV-1)
[12] = biological target: HIV-1 Env of isolate 92RW008 (subtype A) (HIV-1)
[13] = biological target: HIV-1 envelope glycoprotein (Env) of isolate CAAN.A2 (HIV-1)
[14] = biological target: HIV-1 envelope glycoprotein (Env) of isolate APV_17 (HIV-1)
[15] = biological target: HIV-1 Env of isolate MGRM-G-015 (HIV-1)
[16] = biological target: HIV-1 envelope glycoprotein (Env) of isolate MGRM-Chronic-B-004 (HIV-1)
[17] = biological target: HIV-1 Env of isolate 92TH021 (subtype AE) (HIV-1)
[18] = biological target: HIV-1 Env of isolate MGRM-G-016 (HIV-1)
[19] = biological target: HIV-1 Env of isolate CMU02 (subtype AE) (HIV-1)
[20] = biological target: HIV-1 Env of isolate MGRM-AE-003 (subtype AE) (HIV-1)
[21] = biological target: HIV-1 envelope glycoprotein (Env) of isolate 6535.3 (HIV-1)
[22] = biological target: HIV-1 Env of isolate VLGCA1 (subtype A) (HIV-1)
[23] = biological target: aMLV envelope (negative control pseudovirus)
[24] = biological target: HIV-1 Env of isolate 93UG077 (subtype A) (HIV-1)
[25] = biological target: HIV-1 Env of isolate MGRM-G-006 (HIV-1)
[26] = biological target: HIV-1 envelope glycoprotein (Env) of isolate APV_6 (HIV-1)
[27] = biological target: HIV-1 Env of isolate MGRM-G-024 (HIV-1)
[28] = biological target: HIV-1 Env of isolate MGRM-AE-006 (subtype AE) (HIV-1)
[29] = biological target: HIV-1 Env of isolate MGRM-G-025 (HIV-1)
[30] = biological target: HIV-1 Env of isolate MGRM-G-027 (HIV-1)
[31] = biological target: HIV-1 envelope glycoprotein (Env) of isolate JR-FL (HIV-1)
[32] = biological target: HIV-1 Env of isolate MGRM-G-011 (HIV-1)
[33] = biological target: HIV-1 Env of isolate MGRM-G-004 (HIV-1)
[34] = biological target: HIV-1 envelope glycoprotein (Env) of isolate 93TH305 (HIV-1)
[35] = biological target: HIV-1 envelope glycoprotein (Env) of isolate MGRM-Chronic-B-001 (HIV-1)
[36] = biological target: HIV-1 Env of isolate 92WR020 (subtype A) (HIV-1)
[37] = biological target: HIV-1 Env of isolate MGRM-G-028 (HIV-1)
[38] = biological target: HIV-1 envelope glycoprotein (Env) of isolate MGRM-Chronic-B-003 (HIV-1)
[39] = biological target: HIV-1 envelope glycoprotein (Env) of isolate 92BR020 (HIV-1)
[40] = biological target: HIV-1 Env of isolate MGRM-G-019 (HIV-1)
[41] = biological target: HIV-1 Env of isolate 92WR009 (subtype A) (HIV-1)
[42] = biological target: HIV-1 envelope glycoprotein (Env) of isolate MGRM-Chronic-B-002 (HIV-1)
[43] = biological target: HIV-1 Env of isolate MGRM-G-013 (HIV-1)
[44] = biological target: HIV-1 Env of isolate MGRM-G-014 (HIV-1)
[45] = biological target: HIV-1 Env of isolate MGRM-AE-001 (subtype AE) (HIV-1)
[46] = biological target: HIV-1 envelope glycoprotein (Env) of isolate MGRM-Chronic-B-008 (HIV-1)
[47] = biological target: HIV-1 Env of isolate 93WR029 (subtype A) (HIV-1)
[48] = biological target: HIV-1 Env of isolate MGRM-G-009 (HIV-1)
[49] = biological target: HIV-1 Env of isolate 92WR024 (subtype A) (HIV-1)
[50] = biological target: HIV-1 Env of isolate MGRM-G-017 (HIV-1)

4995_P16 (PGT-145) (antibody), sequence (VH): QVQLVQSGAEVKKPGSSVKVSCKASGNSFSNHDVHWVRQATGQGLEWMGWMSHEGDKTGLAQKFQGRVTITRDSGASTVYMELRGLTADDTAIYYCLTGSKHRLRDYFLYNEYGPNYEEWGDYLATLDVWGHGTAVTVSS
4995_P16 (PGT-145) (antibody), sequence (VL): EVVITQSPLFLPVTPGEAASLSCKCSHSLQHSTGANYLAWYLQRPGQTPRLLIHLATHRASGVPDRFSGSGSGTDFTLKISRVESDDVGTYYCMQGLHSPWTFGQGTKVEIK

## 4995_P16 (PGT-145) (antibody)
[1]
  IC50 (µg/mL), pseudovirus neutralization: 1.87 µg/mL
[2]
  IC50 (µg/mL), pseudovirus neutralization: 1.45 µg/mL
[3]
  IC50 (µg/mL), pseudovirus neutralization: 0.967 µg/mL
[4]
  IC50 (µg/mL), pseudovirus neutralization: 3.22 µg/mL
[5]
  IC50 (µg/mL), pseudovirus neutralization: 1.62 µg/mL
[6]
  IC50 (µg/mL), pseudovirus neutralization: 3.15 µg/mL
[7]
  IC50 (µg/mL), pseudovirus neutralization: 0.331 µg/mL
[8]
  IC50 (µg/mL), pseudovirus neutralization: 0.006 µg/mL
[9]
  IC50 (µg/mL), pseudovirus neutralization: 0.337 µg/mL
[10]
  IC50 (µg/mL), pseudovirus neutralization: 1.32 µg/mL
[11]
  IC50 (µg/mL), pseudovirus neutralization: 0.028 µg/mL
[12]
  IC50 (µg/mL), pseudovirus neutralization: 0.4 µg/mL
[13]
  IC50 (µg/mL), pseudovirus neutralization: 7.08 µg/mL
[14]
  IC50 (µg/mL), pseudovirus neutralization: 0.488 µg/mL
[15]
  IC50 (µg/mL), pseudovirus neutralization: 10.5 µg/mL
[16]
  IC50 (µg/mL), pseudovirus neutralization: 0.023 µg/mL
[17]
  IC50 (µg/mL), pseudovirus neutralization: 0.013 µg/mL
[18]
  IC50 (µg/mL), pseudovirus neutralization: 0.081 µg/mL
[19]
  IC50 (µg/mL), pseudovirus neutralization: 1.43 µg/mL
[20]
  IC50 (µg/mL), pseudovirus neutralization: 0.552 µg/mL
[21]
  IC50 (µg/mL), pseudovirus neutralization: > 50 µg/mL
[22]
  IC50 (µg/mL), pseudovirus neutralization: 8.01 µg/mL
[23]
  IC50 (µg/mL), pseudovirus neutralization: > 50 µg/mL
[24]
  IC50 (µg/mL), pseudovirus neutralization: > 50 µg/mL
[25]
  IC50 (µg/mL), pseudovirus neutralization: 0.286 µg/mL
[26]
  IC50 (µg/mL), pseudovirus neutralization: 0.104 µg/mL
[27]
  IC50 (µg/mL), pseudovirus neutralization: 0.06 µg/mL
[28]
  IC50 (µg/mL), pseudovirus neutralization: > 50 µg/mL
[29]
  IC50 (µg/mL), pseudovirus neutralization: > 50 µg/mL
[30]
  IC50 (µg/mL), pseudovirus neutralization: 0.433 µg/mL
[31]
  IC50 (µg/mL), pseudovirus neutralization: 30.4 µg/mL
[32]
  IC50 (µg/mL), pseudovirus neutralization: 0.028 µg/mL
[33]
  IC50 (µg/mL), pseudovirus neutralization: > 50 µg/mL
[34]
  IC50 (µg/mL), pseudovirus neutralization: 0.032 µg/mL
[35]
  IC50 (µg/mL), pseudovirus neutralization: 3.22 µg/mL
[36]
  IC50 (µg/mL), pseudovirus neutralization: 0.997 µg/mL
[37]
  IC50 (µg/mL), pseudovirus neutralization: 0.046 µg/mL
[38]
  IC50 (µg/mL), pseudovirus neutralization: 0.045 µg/mL
[39]
  IC50 (µg/mL), pseudovirus neutralization: 1.05 µg/mL
[40]
  IC50 (µg/mL), pseudovirus neutralization: 0.041 µg/mL
[41]
  IC50 (µg/mL), pseudovirus neutralization: 0.026 µg/mL
[42]
  IC50 (µg/mL), pseudovirus neutralization: 3.67 µg/mL
[43]
  IC50 (µg/mL), pseudovirus neutralization: > 50 µg/mL
[44]
  IC50 (µg/mL), pseudovirus neutralization: 0.144 µg/mL
[45]
  IC50 (µg/mL), pseudovirus neutralization: 20.9 µg/mL
[46]
  IC50 (µg/mL), pseudovirus neutralization: 1.9 µg/mL
[47]
  IC50 (µg/mL), pseudovirus neutralization: > 50 µg/mL
[48]
  IC50 (µg/mL), pseudovirus neutralization: 0.982 µg/mL
[49]
  IC50 (µg/mL), pseudovirus neutralization: 0.069 µg/mL
[50]
  IC50 (µg/mL), pseudovirus neutralization: 0.205 µg/mL

— patent publication US20250320281A1
